Publication doi:10.1101/2021.09.23.461563

B1: C1r enzyme (activated form of human C1r) (enzyme)
chain 1: SIPIPQKLFGEVTSPLFPKPYPNNFETTTVITVPTGYRVKLVFQQFDLEPSEGCFYDYVKISADKKSLGRFCGQLGSPLGNPPGKKEFMSQGNKMLLTFHTDFSNEENGTIMFYKGFLAYYQAVDLDECASRSKSGEEDPQPQCQHLCHNYVGGYFCSCRPGYELQEDTHSCQAECSSELYTEASGYISSLEYPRSYPPDLRCNYSIRVERGLTLHLKFLEPFDIDDHQQVHCPYDQLQIYANGKNIGEFCGKQRPPDLDTSSNAVDLLFFTDESGDSRGWKLRYTTEIIKCPQPKTLDEFTIIQNLQPQYQFRDYFIATCKQGYQLIEGNQVLHSFTAVCQDDGTWHRAMPRCKIKDCGQPRNLPNGDFRYTTTMGVNTYKARIQYYCHEPYYKMQTRAGSRESEQGVYTCTAQGIWKNEQKGEKIPRCLPVCGKPVNPVEQRQR
chain 2: IIGGQKAKMGNFPWQVFTNIHGRGGGALLGDRWILTAAHTLYPKEHEAQSNASLDVFLGHTNVEELMKLGNHPIRRVSVHPDYRQDESYNFEGDIALLELENSVTLGPNLLPICLPDNDTFYDLGLMGYVSGFGVMEEKIAHDLRFVRLPVANPQACENWLRGKNRMDVFSQNMFCAGHPSLKQDACQGDSGGVFAVRDPNTDRWVATGIVSWGIGCSRGYGFYTKVLNYVDWIKKEMEEED
B2: C1s enzyme (activated form of human C1s) (enzyme)
chain 1: EPTMYGEILSPNYPQAYPSEVEKSWDIEVPEGYGIHLYFTHLDIELSENCAYDSVQIISGDTEEGRLCGQRSSNNPHSPIVEEFQVPYNKLQVIFKSDFSNEERFTGFAAYYVATDINECTDFVDVPCSHFCNNFIGGYFCSCPPEYFLHDDMKNCGVNCSGDVFTALIGEIASPNYPKPYPENSRCEYQIRLEKGFQVVVTLRREDFDVEAADSAGNCLDSLVFVAGDRQFGPYCGHGFPGPLNIETKSNALDIIFQTDLTGQKKGWKLRYHGDPMPCPKEDTPNSVWEPAKAKYVFRDVVQITCLDGFEVVEGRVGATSFYSTCQSNGKWSNSKLKCQPVDCGIPESIENGKVEDPESTLFGSVIRYTCEEPYYYMENGGGGEYHCAGNGSWVNEVLGPELPKCVPVCGVPREPFEEKQR
chain 2: IIGGSDADIKNFPWQVFFDNPWAGGALINEYWVLTAAHVVEGNREPTMYVGSTSVQTSRLAKSKMLTPEHVFIHPGWKLLEVPEGRTNFDNDIALVRLKDPVKMGPTVSPICLPGTSSDYNLMDGDLGLISGWGRTEKRDRAVRLKAARLPVAPLRKCKEVKVEKPTADAEAYVFTPNMICAGGEKGMDSCKGDSGGAFAVQDPNDKTKFYAAGLVSWGPQCGTYGLYTRVKNYVDWIMKTMQENSTPRED

Experiments:
[1] = biological target: GST-ErpB (Borrelia burgdorferi strain B31); assay: SPR
[2] = biological target: GST-ErpQ (Borrelia burgdorferi strain B31); assay: SPR

| Binder | Kd [1] [nM] | Kd [2] [nM] |
| --- | --- | --- |
| B1 | 100 | 97 |
| B2 | 3.9 | 4.5 |
